Data published in article PMC6647829, “Copper–zinc superoxide dismutase (Sod1) activation terminates interaction between its copper chaperone (Ccs) and the cytosolic metal-binding domain of the copper importer Ctr1” (Biometals, 2019).

Experiments:
Conditions in all cases: both partners purified
[1] = molecular target: T1, Pre-made Cu(I)-Ctr1c·Ccs complex (human, UniProt O14618 1-274); assay: other fluorescence titration; HI-FI method, fluorescence quenching; 10 nM Alexa-546 Sod1 probe, completely immature (metal-free); Ccs titrated in increasing concentrations; fit in GraphPad Prism
T1 construct: Human wild-type Ccs1, UniProtKB O14618; as m2; C-terminal 13 amino acids of the human Ctr1 Cu(I)-transporter (Ctr1c), UniProtKB O15431; Held together through Cu(I); also called Cu(I)-Ctr1c complexed Ccs; Cu(I)-Ctr1c488·Ccs; source: formed from purified E. coli Ccs and the Cu(I)-loaded synthetic peptide; not shown: His8, N-terminal, cleaved

[2] = molecular target: T2, Human wild-type copper chaperone for Sod1 (Ccs), His8-tag removed (human, UniProt O14618 1-274); assay: as above
T2 construct: Human wild-type Ccs1, UniProtKB O14618, cloned into pAG8H; Stripped of metals (apo) or Cu(I)-loaded as the experiment says; the methods tell its removal in general; also called Ccs1; WT Ccs; not shown: His8, N-terminal, cleaved
T2 sequence (looked up): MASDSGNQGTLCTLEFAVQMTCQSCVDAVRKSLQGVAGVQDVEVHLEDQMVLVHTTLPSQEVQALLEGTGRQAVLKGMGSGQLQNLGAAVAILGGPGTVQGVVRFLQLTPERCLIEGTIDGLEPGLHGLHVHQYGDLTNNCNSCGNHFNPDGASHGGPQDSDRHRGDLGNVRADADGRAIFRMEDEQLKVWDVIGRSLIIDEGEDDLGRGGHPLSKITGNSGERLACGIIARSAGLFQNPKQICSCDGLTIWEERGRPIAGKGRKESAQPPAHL

[3] = molecular target: T2, Human wild-type copper chaperone for …; assay: other fluorescence titration; HI-FI method, fluorescence quenching; 10 nM Alexa-546 Sod1 probe, Zn-bound; apo-Ccs titrated in increasing concentrations; fit in GraphPad Prism

- Kd [1]: 120 ± 27 nM
- Kd [2]: 89 ± 11 nM
- Kd [3]: 22 ± 6 nM
B1: H46R/H48Q/C146S Sod1 labelled with Alexa-546-C-maleimide (Sod1 probe) (enzyme)
chain: not shown
modifications: Alexa-546-C-maleimide label (residue not stated)
notes: Human Sod1, UniProtKB P00441, H46R/H48Q/C146S; the two states are told apart by the assay; also called completely immature Sod1; source: gel filtration after labelling
